Laboratory results taken from the nanobody polyreactivity screen of Harvey et al. (2022).

Assay: yeast display, Sf9 membrane polyspecificity reagent, FACS + sequencing; frameworks hold sequencing errors
Summary of the method: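 Galactose induction of a Saccharomyces cerevisiae BJ5465 synthetic nanobody display library ran 36–48 hours. The cells were then stained for 1 hour at 4 °C with 10% biotinylated, detergent-solubilized Sf9 membrane reagent, pulled down on streptavidin microbeads and FACS-sorted into low and high (top ~1%) gates on expression and reagent-binding fluorescence. Labels for polyreactivity follow the gate of origin.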

Sequence	polyreactivity (PSR sort gate)
QVQLVESGGGLVQAGGSLRLSCAASGSIFGAYAMGWYRQAPGKERELVAAISSGGSTYADSVKGRFTISRDNAKNTVYLQMNSMKPEDTAVYYCNAVFRARNYHYNPRRFKYYYWGQGTQVSVSS	high polyreactivity
QVQLVESGGGLVQAGGSLRLSCAASGSIFGAYTMGWYRQAPGKEREFVAVISKGGTNTYYADSVKGRFTISRDNAKNTVYLQMNSLKPEDTAVYYCAARAYPTWRTYYYWGQGTQVTVSS	high polyreactivity
QVQLVESGGGLVQAGGSLRLSCAASGSIFGDNAMGWYRQAPGKERELVATISSSDASTYYADSVKGRFTISRDNAKNTVYLQMNSLKPEDTSVYYCAAARSGGYDYWGQGTQVTVSS	low polyreactivity
QVQLVESGGGLVQAGGSLRLSCAASGSIFGDYAMGWYRQAPGKERELVAAISRADGTYYADSVKGRFTISRDNAKNTVYLQMNSLKPEDTAVYYCATDYGIRSYYYSWYYVFTADDYWGQGTQVTVSS	low polyreactivity
QVQLVESGGGLVQAGGSLRLSCAASGSIFGDYAMGWYRQAPGTDRELVATITWIGGSTYYADSVKGRFTISRDNAKNTVYCQMNSLKPEDTAVYYCAATKYVDVKYYYWGQGTQVTVSS	low polyreactivity
QVQLVESGGGLVQAGGSLRLSCAASGSIFGDYDMGWYRQAPGKERELVAAITSGGSTDYADSVKGRFTISRDNAKNTVYLQMNRLKPEDTAVYYCAAEDKCGYFLFPFWLELDYWGQGTQVTVSS	low polyreactivity
QVQLVESGGGLVQAGGSLRLSCAASGSIFGFYAMGWYRQAPGKERELVAVISVSDGSTYYADSVKGRFTISRDNAKNTVYLQMNCLKPEDTAVYYCAATPRGSYGYYYWGQGTQVTVSS	low polyreactivity
QVQLVESGGGLVQAGGSLRLSCAASGSIFGGNAMGWYRQAPGKERELVAAITDGGNTNYADSVKGRFTISRDNAKNTVYLQINSLKPEDTAVYYCAARIPGTYGGRYGYDYWGQGTQVTVSS	low polyreactivity
QVQLVESGGGLVQAGGSLRLSCAASGSIFGGYAMGGYRQAPGKERELFARITDRGGSTDYADSVKGRFTISRDNAKNTVYLQMNRLKPEDTAVYYCAKRGDRYEKRPRDYWGQGTQVTVSS	low polyreactivity
QVQLVESGGGLVQAGGSLRLSCAASGSIFGGYAMGGYRQAPGKERELVAAISWSGDSTYYADSVKGRFTISRDNANNTDYLQMNSLKPEDTAVYYCAAYYLAWYAFRYKTVGSAMDYWGQGTQVTVSS	low polyreactivity
QVQLVESGGGLVQAGGSLRLSCAASGSIFGGYAMGSYRQAPGKERELVAAISSGGTTNYADSVKGRFTISRDNAKNTVYLQMNSLKPEDTAVYYCAREYGPTYQSVPVKFIQLDYWGQGTQVTVSS	low polyreactivity
QVQLVESGGGLVQAGGSLRLSCAASGSIFGGYAMGWYRQAPGKERELVAAISSGGSTYYADSVKGRFTISRDNAKNTVYLQMNSLKPEDTAVYYCATSTYAYRRNSYYYTRPRFGYWGQGTQVTVSS	high polyreactivity
QVQLVESGGGLVQAGGSLRLSCAASGSIFGGYAMGWYRQAPGKERELVAAISYRGASTYYADSVKGRFTISRDNAKNTVYLQMNSLKPEDTAVYYCAVAARTRARVLYGYDYWGQGSQVTVSS	low polyreactivity
QVQLVESGGGLVQAGGSLRLSCAASGSIFGGYAMGWYRQAPGKERELVAAITWNGGSTYYADSVKGRFTISRDNAKNTVYLQMNSLKPEDTAVYYCAAELPGRDAGRYDYWGQGTQVTVSS	low polyreactivity
QVQLVESGGGLVQAGGSLRLSCAASGSIFGGYAMGWYRQAPGKEREWVAAITSSGGRTYYADSVKGRFTISRDNAKNTVYLQMNSLKPEDTAVYYCAARYTRWRYNYKDYDYWGQGTQVTVSS	high polyreactivity
QVQLVESGGGLVQAGGSLRLSCAASGSIFGGYGMGWYSQAPGKERELVAAITSGSSTYYADSVKGRFTISRDNAKNTVYLLMNSLKPEDTAVYYCAKVSYYPWRYDYWGQGTQVTVTS	low polyreactivity
QVQLVESGGGLVQAGGSLRLSCAASGSIFGGYTMGWYRPAPGKERELVAAITKNGGRTYYADSVKGRFTISRDTAKPTVYLQMNSLKPEDTAVYYCAAATSPSWYTWVTYDYWGQGTQVTVSS	high polyreactivity
QVQLVESGGGLVQAGGSLRLSCAASGSIFGGYTMGWYRQAPGKERELVAGITISGGSTYYADSVKGRFTISRDNAKNTVYLQMNSLKPEDTAVYYCAAVSFVVSSWGYGYWGQGTQVTVSS	low polyreactivity
QVQLVESGGGLVQAGGSLRLSCAASGSIFGGYTMGWYRQPPGKERELVATISRRGGRTYYADSVKGRFTISRDNAKNTVYLQMNSLKPEDTAVYYCAARWGRGLEFDYWGQGTQVTVSS	high polyreactivity
QVQLVESGGGLVQAGGSLRLSCAASGSIFGHNTMGWYRPAPGKERELVAAITWNGGRTYYADSVKGRFTISRDNAMNTVYLQMNSLKPEDTAVYYCNAVVKTYAYKAHRYPSTRLNYWGQGTQVTVSS	high polyreactivity
QVQLVESGGGLVQAGGSLRLSCAASGSIFGINVMGWYRQAPGKERELVAAITSGTSTYYADSVKGRFTISRDNANNTVYLQMNSLKPEDTAVYYCAALWSSRYVVHPQWYDYWGQGTQVTVSS	low polyreactivity
QVQLVESGGGLVQAGGSLRLSCAASGSIFGIYAKGWYRQAPGKERELVAAITTTGGTSDYADSVKGRFTISRENAKNTVYVQMKSLKPVDTAVYYCAADAYYYWYYSLDYYYWGQGTQVTVSS	high polyreactivity

Sequence	polyreactivity (PSR sort gate)
QVQLVESGGGLVQAGGSLRLSCAASGSIFGIYAMGWYRPAPGKERELVATINSRGTTNYADSVKGRFTISRDNAKNTVYLQMNSLKPEDTAVYYCAARFSTYRGKRKGYEYWGQGTQVTVSS	high polyreactivity
QVQLVESGGGLVQAGGSLRLSCAASGSIFGIYAMGWYRQAPGKERELVAAISGSGGDTYYADSVKGRFTISRDNAKNTVYLQMNSLKPEDTAVYYCAATTGAAYPFDYWGQGTQVTVSS	low polyreactivity
QVQLVESGGGLVQAGGSLRLSCAASGSIFGKNAMGWYRQAPGKERELVAAITSTGTSTYYADSVKGRFTISRDTAKNTVYLQMNSLKAEDTAVYYCADETARWDYGYWGQGTQVTVSS	low polyreactivity
QVQLVESGGGLVQAGGSLRLSCAASGSIFGKYAMGWYRQAPGKERELVAAISYSGGSTYYADSVKGRFTISRDNAKNTVYLQMNSLKPEDTAVYYCAVRGWGSAGKYDYWGQGTQVTVSS	high polyreactivity
QVQLVESGGGLVQAGGSLRLSCAASGSIFGKYAMGWYRQAPGKERELVATINRGGGGTYYADSVKGRFTISRDNAKNTVYLQMNSLKPEDTAVYYWAVSYRSYVWYGYWGQGTQVTVSS	high polyreactivity
QVQLVESGGGLVQAGGSLRLSCAASGSIFGLNAMGWYRQAPGKERELVAAISGGSTNYADSVKGRFTISRDNAKNTVYLQMNSLKPEDTAVYYCAARARRRYYYWGQGTQVTVSS	high polyreactivity
QVQLVESGGGLVQAGGSLRLSCAASGSIFGLYAMGWYRQAPGKERELVAAINWNGGDTYYADSVKGRFTISRDNAKNTVYLQMNSLKPEDTAVYYCAAELYRYGIRRRHYDYWGQGTLVTVSS	low polyreactivity
QVQLVESGGGLVQAGGSLRLSCAASGSIFGLYAMGWYRQAPGKERELVAAISRSGGSTYYADSVKGRFTISRDNAKNTVYLQMYSLKPEDSAVYDCNALRWSQYTYSSRLGHFDSWGQGTQVTVSS	high polyreactivity
QVQLVESGGGLVQAGGSLRLSCAASGSIFGLYAMGWYRQAPGKERELVAAISTSSGRTYYADSVKGRFTISRDNAKNTVYLQMNSLKPEDTAVYYCNARVYVTSGFRYDYWGQGTQVTVSS	high polyreactivity
QVQLVESGGGLVQAGGSLRLSCAASGSIFGLYAMGWYRQAPGKERELVAAITDSTGSTSYADSVKGRFTISRDNAKNTVYLQMTSLKPEDTAVYYCAAGQGRWRHGFDYWGQGTQVTVSS	low polyreactivity
QVQLVESGGGLVQAGGSLRLSCAASGSIFGNYVMGWYRQSPGKERELVAAISWSGGTNYADSVKGRFTISRDNAKNTVYLQMNSLKPEDTAVYYCATVIRGHKRFAYGYWGQGTQVTVSS	high polyreactivity
QVQLVESGGGLVQAGGSLRLSCAASGSIFGPNAMGRSRQAPGKERELVAAISWVGGSTYYADSVKGRFTISGDIAKNTVYLQMNSLKPEDTAVYYCNASGYHDTALRYDYWGQGTQVTVSS	low polyreactivity
QVQLVESGGGLVQAGGSLRLSCAASGSIFGPNAMGWYRQAPGKERELVAAITLSGGSTYYADSVKGRFTISRDNAKNTVYLQMNSLKPEDTAVYYCNADLLPADAPLWVTGGDYWGQGTQVTVSS	low polyreactivity
QVQLVESGGGLVQAGGSLRLSCAASGSIFGPNAMGWYRQAPGKERELVAAITSGSSTKYADSVKGRFTISRDNATNTVYLQMNSLKPEDTAVYYCAASGTSTWKYGYWGQGSQVTVSS	low polyreactivity
QVQLVESGGGLVQAGGSLRLSCAASGSIFGPYAMGGYRQAPGKERELVAAISSGGSTNYADSVKGRFTISRDNAKNTVYLQMNSLKPEDTAVYYCAADRKYFYLWLDQEHRYYWGQGTQVTVSS	low polyreactivity
QVQLVESGGGLVQAGGSLRLSCAASGSIFGPYAMGWYRQAPGKERELVAAISNGGTTYYADSVKGRFTISRDNAKYTVYLQMNSLKPEDTAVYYCNAEQYLYYILGNYDYWGQGTQVTVSS	low polyreactivity
QVQLVESGGGLVQAGGSLRLSCAASGSIFGPYAMGWYRQAPGKERELVAAISTRGGRTYYADSVKGRFTISRDNAKNTVYLQMNSLKPEDTAVYYCNARRSDSRSYDYWGQGTQVTVSS	high polyreactivity
QVQLVESGGGLVQAGGSLRLSCAASGSIFGPYAMGWYRQAPGKERELVAVISKRGGSTYYADSVKGRFTISRDNAKNTVYLQMNSLKPEDTAVYYCAADYDWDPYRIYYLASYDYWGQGTQVTVSS	high polyreactivity
QVQLVESGGGLVQAGGSLRLSCAASGSIFGQNAMGWYRQAPGKERELVAAITSGAGITYYADSVKGRFTISRDNAKNTVYLQMNSLKPEDPAVYYCIAVPSWSPSPLFDYWGQGTQVTVSS	low polyreactivity
QVQLVESGGGLVQAGGSLRLSCAASGSIFGRNALGWSRQAPGKERELVAAIRDSGTSTYYADSVKGRFTISRDNAKNTVYLQMNSLKPEDTAVYYCAASRRPGYTYGYWGQGTQVTVSS	high polyreactivity
QVQLVESGGGLVQAGGSLRLSCAASGSIFGRNAMGWYRQAPGKEREFVATITSRGGRTYYADSVKGRFTISRDNAKNTVYLQMNSLKPEYTAVYYCAADTYISTLKKYRLGDYWGQGTQVTVSS	low polyreactivity
